How the values were obtained:
[1] = target: T1, Lymnaea stagnalis acetylcholine binding protein (AChBP) (Lymnaea stagnalis), P58154; assay: stopped-flow spectrofluorimetry
[2] = target: T2, Aplysia californica acetylcholine binding protein (AChBP) (Aplysia californica); assay: stopped-flow spectrofluorimetry, excitation 280 nm, emission above 305 nm
T2 chain: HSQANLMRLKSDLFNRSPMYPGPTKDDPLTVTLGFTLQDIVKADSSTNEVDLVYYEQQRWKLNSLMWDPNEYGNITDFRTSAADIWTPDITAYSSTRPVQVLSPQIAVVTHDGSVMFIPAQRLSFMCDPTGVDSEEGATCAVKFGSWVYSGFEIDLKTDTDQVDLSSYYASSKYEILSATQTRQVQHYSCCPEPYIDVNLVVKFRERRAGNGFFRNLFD

[3] = target: T1, Lymnaea stagnalis acetylcholine binding …; assay: as above
[4] = target: T2, Aplysia californica acetylcholine …
[5] = target: T1, Lymnaea stagnalis acetylcholine binding …; assay: ratio of Kd on Lymnaea AChBP to Kd on Aplysia AChBP
[6] = target: T2, Aplysia californica acetylcholine …
[7] = target: T2, Aplysia californica acetylcholine …
[8] = target: T1, Lymnaea stagnalis acetylcholine binding …

T1 sequence (P58154 20-229): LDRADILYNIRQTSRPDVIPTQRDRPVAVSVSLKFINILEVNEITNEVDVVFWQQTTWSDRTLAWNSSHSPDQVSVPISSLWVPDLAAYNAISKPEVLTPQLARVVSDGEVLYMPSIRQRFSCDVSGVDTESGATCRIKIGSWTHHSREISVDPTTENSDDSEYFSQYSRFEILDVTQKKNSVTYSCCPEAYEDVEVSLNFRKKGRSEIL

B1: α-conotoxin ImI, P50983 5-16 (peptide)
peptide: GCCSDPRCAWRC
modifications: not checked
- koff [1]: 19 s⁻¹
- kon [2]: 1.6e+07 M⁻¹ s⁻¹
- kon [3]: 1.4e+06 M⁻¹ s⁻¹
- koff [4]: 0.01 s⁻¹
- Kd Ratio L/A [5]: 16000
- fold greater affinity than for L-AChBP [6]: > 10000 fold
- Kd [7]: 0.00088 µM
- Kd [8]: 14 µM
